Values quoted from earlier work in paper PMC11634773 (Nature, 2024).

Details: humans, basal insulin

insulin glargine
c.v. for traditional needle-based subcutaneous pen injection: 33%
